Test results as given in FireProtDB (doi:10.1021/bi9901228).

B1: Lysozyme C, P61626 (parent)
chain: MKALIVLGLVLLSVTVQGKVFERCELARTLKRLGMDGYRGISLANWMCLAKWESGYNTRATNYNAGDRSTDYGIFQINSRYWCNDGKTPGAVNACHLSCSALLQDNIADAVACAKRVVRDPQGIRAWVAWRNRCQNRDVRQYVQGCGV

Variants of: B1
Settings: Homo sapiens; pH 2.51; Thermal; DSC; glycine 0.05 M; reversible: yes; structure 1LZ1; whole UniProt chain shown

Variant	Tm [°C]	heat capacity change of unfolding [kcal/mol/K]	unfolding enthalpy (calorimetric) [kcal/mol]	unfolding enthalpy (van 't Hoff) [kcal/mol]
MKALIVLGLVLLSVTVQGKVFERCELARTLKRLGMDGYRGISLANWMCLAKWESGYNTRATNYNAGDRSTDYGIFQINSRYWCNDGKTPGAVNACHLSCAALLQDNIADAVACAKRVVRDPQGIRAWVAWRNRCQNRDVRQYVQGCGV [S100A]	62.5	1.41	111	117
MKALIVLGLVLLSVTVQGKVFERCELARTLKRLGMDGYRGISLANWMCLAKWESGYNTRATNYNAGDRATDYGIFQINSRYWCNDGKTPGAVNACHLSCSALLQDNIADAVACAKRVVRDPQGIRAWVAWRNRCQNRDVRQYVQGCGV [S69A]	61	1.48	106	113

Same assay, conditions: Homo sapiens; pH 2.7; Thermal; DSC; glycine 0.05 M; reversible: yes; structure 1LZ1; whole UniProt chain shown

Variant	Tm [°C]	change of melting temperature, mutant - wild type (higher = more stable) [°C]	heat capacity change of unfolding [kcal/mol/K]	unfolding enthalpy (calorimetric) [kcal/mol]
MKALIVLGLVLLSVTVQGKVFERCELARTLKRLGMDGYRGISLANWMCLAKWESGYNTRATNYNAGDRSTDYGIFQINSRYWCNDGKTPGAVNACHLSCAALLQDNIADAVACAKRVVRDPQGIRAWVAWRNRCQNRDVRQYVQGCGV [S100A]	66	1.1	1.27	114
MKALIVLGLVLLSVTVQGKVFERCELARTLKRLGMDGYRGIALANWMCLAKWESGYNTRATNYNAGDRSTDYGIFQINSRYWCNDGKTPGAVNACHLSCSALLQDNIADAVACAKRVVRDPQGIRAWVAWRNRCQNRDVRQYVQGCGV [S42A]	63.3	-1.6	1.51	110
MKALIVLGLVLLSVTVQGKVFERCELARTLKRLGMDGYRGISLANWMCLAKWESGYNTRATNYNAGDRATDYGIFQINSRYWCNDGKTPGAVNACHLSCSALLQDNIADAVACAKRVVRDPQGIRAWVAWRNRCQNRDVRQYVQGCGV [S69A]	64.2	-0.7	1.43	112

Same assay, conditions: Homo sapiens; pH 2.85; Thermal; DSC; glycine 0.05 M; reversible: yes; structure 1LZ1; whole UniProt chain shown

Variant	Tm [°C]	heat capacity change of unfolding [kcal/mol/K]	unfolding enthalpy (calorimetric) [kcal/mol]	unfolding enthalpy (van 't Hoff) [kcal/mol]
MKALIVLGLVLLSVTVQGKVFERCELARTLKRLGMDGYRGISLANWMCLAKWESGYNTRATNYNAGDRSTDYGIFQINSRYWCNDGKTPGAVNACHLSCAALLQDNIADAVACAKRVVRDPQGIRAWVAWRNRCQNRDVRQYVQGCGV [S100A]	68.9	1.2	120	128

Same assay, conditions: Homo sapiens; pH 3.12; Thermal; DSC; glycine 0.05 M; reversible: yes; structure 1LZ1; whole UniProt chain shown

Variant	Tm [°C]	heat capacity change of unfolding [kcal/mol/K]	unfolding enthalpy (calorimetric) [kcal/mol]	unfolding enthalpy (van 't Hoff) [kcal/mol]
MKALIVLGLVLLSVTVQGKVFERCELARTLKRLGMDGYRGISLANWMCLAKWESGYNTRATNYNAGDRSTDYGIFQINSRYWCNDGKTPGAVNACHLSCAALLQDNIADAVACAKRVVRDPQGIRAWVAWRNRCQNRDVRQYVQGCGV [S100A]	73.5	1.41	125	133

Same assay, conditions: Homo sapiens; pH 2.46; Thermal; DSC; glycine 0.05 M; reversible: yes; structure 1LZ1; whole UniProt chain shown

Variant	Tm [°C]	heat capacity change of unfolding [kcal/mol/K]	unfolding enthalpy (calorimetric) [kcal/mol]	unfolding enthalpy (van 't Hoff) [kcal/mol]
MKALIVLGLVLLSVTVQGKVFERCELARTLKRLGMDGYRGIALANWMCLAKWESGYNTRATNYNAGDRSTDYGIFQINSRYWCNDGKTPGAVNACHLSCSALLQDNIADAVACAKRVVRDPQGIRAWVAWRNRCQNRDVRQYVQGCGV [S42A]	58.8	1.46	101	105

Same assay, conditions: Homo sapiens; pH 2.66; Thermal; DSC; glycine 0.05 M; reversible: yes; structure 1LZ1; whole UniProt chain shown

Variant	Tm [°C]	heat capacity change of unfolding [kcal/mol/K]	unfolding enthalpy (calorimetric) [kcal/mol]	unfolding enthalpy (van 't Hoff) [kcal/mol]
MKALIVLGLVLLSVTVQGKVFERCELARTLKRLGMDGYRGIALANWMCLAKWESGYNTRATNYNAGDRSTDYGIFQINSRYWCNDGKTPGAVNACHLSCSALLQDNIADAVACAKRVVRDPQGIRAWVAWRNRCQNRDVRQYVQGCGV [S42A]	62.5	1.67	106	111

Same assay, conditions: Homo sapiens; pH 2.82; Thermal; DSC; glycine 0.05 M; reversible: yes; structure 1LZ1; whole UniProt chain shown

Variant	Tm [°C]	heat capacity change of unfolding [kcal/mol/K]	unfolding enthalpy (calorimetric) [kcal/mol]	unfolding enthalpy (van 't Hoff) [kcal/mol]
MKALIVLGLVLLSVTVQGKVFERCELARTLKRLGMDGYRGIALANWMCLAKWESGYNTRATNYNAGDRSTDYGIFQINSRYWCNDGKTPGAVNACHLSCSALLQDNIADAVACAKRVVRDPQGIRAWVAWRNRCQNRDVRQYVQGCGV [S42A]	65.7	1.55	112	117

Same assay, conditions: Homo sapiens; pH 3.09; Thermal; DSC; glycine 0.05 M; reversible: yes; structure 1LZ1; whole UniProt chain shown

Variant	Tm [°C]	heat capacity change of unfolding [kcal/mol/K]	unfolding enthalpy (calorimetric) [kcal/mol]	unfolding enthalpy (van 't Hoff) [kcal/mol]
MKALIVLGLVLLSVTVQGKVFERCELARTLKRLGMDGYRGIALANWMCLAKWESGYNTRATNYNAGDRSTDYGIFQINSRYWCNDGKTPGAVNACHLSCSALLQDNIADAVACAKRVVRDPQGIRAWVAWRNRCQNRDVRQYVQGCGV [S42A]	70.3	1.41	118	123

Same assay, conditions: Homo sapiens; pH 2.69; Thermal; DSC; glycine 0.05 M; reversible: yes; structure 1LZ1; whole UniProt chain shown

Variant	Tm [°C]	heat capacity change of unfolding [kcal/mol/K]	unfolding enthalpy (calorimetric) [kcal/mol]	unfolding enthalpy (van 't Hoff) [kcal/mol]
MKALIVLGLVLLSVTVQGKVFERCELARTLKRLGMDGYRGISLANWMCLAKWESGYNTRATNYNAGDRATDYGIFQINSRYWCNDGKTPGAVNACHLSCSALLQDNIADAVACAKRVVRDPQGIRAWVAWRNRCQNRDVRQYVQGCGV [S69A]	64.2	1.43	111	118

Same assay, conditions: Homo sapiens; pH 2.86; Thermal; DSC; glycine 0.05 M; reversible: yes; structure 1LZ1; whole UniProt chain shown

Variant	Tm [°C]	heat capacity change of unfolding [kcal/mol/K]	unfolding enthalpy (calorimetric) [kcal/mol]	unfolding enthalpy (van 't Hoff) [kcal/mol]
MKALIVLGLVLLSVTVQGKVFERCELARTLKRLGMDGYRGISLANWMCLAKWESGYNTRATNYNAGDRATDYGIFQINSRYWCNDGKTPGAVNACHLSCSALLQDNIADAVACAKRVVRDPQGIRAWVAWRNRCQNRDVRQYVQGCGV [S69A]	66.7	1.55	115	121

Same assay, conditions: Homo sapiens; pH 3.11; Thermal; DSC; glycine 0.05 M; reversible: yes; structure 1LZ1; whole UniProt chain shown

Variant	Tm [°C]	heat capacity change of unfolding [kcal/mol/K]	unfolding enthalpy (calorimetric) [kcal/mol]	unfolding enthalpy (van 't Hoff) [kcal/mol]
MKALIVLGLVLLSVTVQGKVFERCELARTLKRLGMDGYRGISLANWMCLAKWESGYNTRATNYNAGDRATDYGIFQINSRYWCNDGKTPGAVNACHLSCSALLQDNIADAVACAKRVVRDPQGIRAWVAWRNRCQNRDVRQYVQGCGV [S69A]	70.8	1.36	120	126
